Measurements taken from US6818657B1, “Bioprecursors of a retinoic derivative and pharmaceutical and/or cosmetic compositions” (Pierre Fabre Dermo-Cosmetique, priority 1999, dated 2004).

Substrate: CC1=C(/C=C/C(C)=C/C=C/C(C)=C/C(=O)Oc2ccc(O[C@@H]3OC(CO)[C@@H](O)C(O)C3O)cc2)C(C)(C)CCC1
Assay: Michaelis constants (Km) and Vm of recombinant β-glucocerebrosidase for pseudosubstrates
Format: biochemical
Conditions: other: phthalate buffer pH 5.6 (0.025 M), taurocholate 5 mM, purified β-glucocerebrosidase, 30 minutes incubation, HPLC assay
Description: After confirming that β-glucocerebrosidase is expressed in the keratinocytes, we produced a recombinant enzyme in the baculovirus system. A histidine tail was added to the COOH end of the protein to allow it to be purified by affinity column chromatography.
Thus, we were able to determine the Michaelis constants (Km) and the Vm values of the recombinant β-glucocerebrosidase in particular for the retinoic acid-arbutin glucoconjugate. The kinetics measurements are carried out in a phthalate buffer at pH 5.6 (0.025 M) containing taurocholate (5 mM), purified β-glucocerebrosidase and the test conjugate at various concentrations. The incubation lasts 30 minutes and the amount of hydroquinone-retinoic acid conjugate released is assayed by HPLC. The table below gives the results obtained. […] As regards their rates of hydrolysis, these are lower and thus allow effects to be obtained over time.

B1: recombinant β-glucocerebrosidase (Homo sapiens) (protein)
chain: ARPCIPKSFGYSSVVCVCNATYCDSFDPPTFPALGTFSRYESTRSGRRMELSMGPIQANHTGTGLLLTLQPEQKFQKVKGFGGAMTDAAALNILALSPPAQNLLLKSYFSEEGIGYNIIRVPMASCDFSIRTYTYADTPDDFQLHNFSLPEEDTKLKIPLIHRALQLAQRPVSLLASPWTSPTWLKTNGAVNGKGSLKGQPGDIYHQTWARYFVKFLDAYAEHKLQFWAVTAENEPSAGLLSGYPFQCLGFTPEHQRDFIARDLGPTLANSTHHNVRLLMLDDQRLLLPHWAKVVLTDPEAAKYVHGIAVHWYLDFLAPAKATLGETHRLFPNTMLFASEACVGSKFWEQSVRLGSWDRGMQYSHSIITNLLYHVVGWTDWNLALNPEGGPNWVRNFVDSPIIVDITKDTFYKQPMFYHLGHFSKFIPEGSQRVGLVASQKNDLDAVALMHPDGSAVVVVLNRSSKDVPLTIKDPAVGFLETISPGYSIHTYLWRRQ
notes: histidine tail (His tag) (C); made in house
  Km: 5 ± 1.2 µM
  Vmax: 235 ± 19 nmol/h/mg
